Reference: patent USRE46376 (Wyeth LLC, dated 2017)

Tests used:
[1] = target: wild-type C. difficile toxin B (TcdB) (Clostridium difficile strain 630, UniProt P18177 2-2366); test: binding specificity, Table 18
[2] = target: Commercial, Control Toxin B wt (List Biologicals) (Clostridium difficile, UniProt P18177 2-2366); test: dot blot, non-denaturing conditions
Sequence of Commercial, Control Toxin B wt (List Biologicals) (P18177 2-2366 limits assumed): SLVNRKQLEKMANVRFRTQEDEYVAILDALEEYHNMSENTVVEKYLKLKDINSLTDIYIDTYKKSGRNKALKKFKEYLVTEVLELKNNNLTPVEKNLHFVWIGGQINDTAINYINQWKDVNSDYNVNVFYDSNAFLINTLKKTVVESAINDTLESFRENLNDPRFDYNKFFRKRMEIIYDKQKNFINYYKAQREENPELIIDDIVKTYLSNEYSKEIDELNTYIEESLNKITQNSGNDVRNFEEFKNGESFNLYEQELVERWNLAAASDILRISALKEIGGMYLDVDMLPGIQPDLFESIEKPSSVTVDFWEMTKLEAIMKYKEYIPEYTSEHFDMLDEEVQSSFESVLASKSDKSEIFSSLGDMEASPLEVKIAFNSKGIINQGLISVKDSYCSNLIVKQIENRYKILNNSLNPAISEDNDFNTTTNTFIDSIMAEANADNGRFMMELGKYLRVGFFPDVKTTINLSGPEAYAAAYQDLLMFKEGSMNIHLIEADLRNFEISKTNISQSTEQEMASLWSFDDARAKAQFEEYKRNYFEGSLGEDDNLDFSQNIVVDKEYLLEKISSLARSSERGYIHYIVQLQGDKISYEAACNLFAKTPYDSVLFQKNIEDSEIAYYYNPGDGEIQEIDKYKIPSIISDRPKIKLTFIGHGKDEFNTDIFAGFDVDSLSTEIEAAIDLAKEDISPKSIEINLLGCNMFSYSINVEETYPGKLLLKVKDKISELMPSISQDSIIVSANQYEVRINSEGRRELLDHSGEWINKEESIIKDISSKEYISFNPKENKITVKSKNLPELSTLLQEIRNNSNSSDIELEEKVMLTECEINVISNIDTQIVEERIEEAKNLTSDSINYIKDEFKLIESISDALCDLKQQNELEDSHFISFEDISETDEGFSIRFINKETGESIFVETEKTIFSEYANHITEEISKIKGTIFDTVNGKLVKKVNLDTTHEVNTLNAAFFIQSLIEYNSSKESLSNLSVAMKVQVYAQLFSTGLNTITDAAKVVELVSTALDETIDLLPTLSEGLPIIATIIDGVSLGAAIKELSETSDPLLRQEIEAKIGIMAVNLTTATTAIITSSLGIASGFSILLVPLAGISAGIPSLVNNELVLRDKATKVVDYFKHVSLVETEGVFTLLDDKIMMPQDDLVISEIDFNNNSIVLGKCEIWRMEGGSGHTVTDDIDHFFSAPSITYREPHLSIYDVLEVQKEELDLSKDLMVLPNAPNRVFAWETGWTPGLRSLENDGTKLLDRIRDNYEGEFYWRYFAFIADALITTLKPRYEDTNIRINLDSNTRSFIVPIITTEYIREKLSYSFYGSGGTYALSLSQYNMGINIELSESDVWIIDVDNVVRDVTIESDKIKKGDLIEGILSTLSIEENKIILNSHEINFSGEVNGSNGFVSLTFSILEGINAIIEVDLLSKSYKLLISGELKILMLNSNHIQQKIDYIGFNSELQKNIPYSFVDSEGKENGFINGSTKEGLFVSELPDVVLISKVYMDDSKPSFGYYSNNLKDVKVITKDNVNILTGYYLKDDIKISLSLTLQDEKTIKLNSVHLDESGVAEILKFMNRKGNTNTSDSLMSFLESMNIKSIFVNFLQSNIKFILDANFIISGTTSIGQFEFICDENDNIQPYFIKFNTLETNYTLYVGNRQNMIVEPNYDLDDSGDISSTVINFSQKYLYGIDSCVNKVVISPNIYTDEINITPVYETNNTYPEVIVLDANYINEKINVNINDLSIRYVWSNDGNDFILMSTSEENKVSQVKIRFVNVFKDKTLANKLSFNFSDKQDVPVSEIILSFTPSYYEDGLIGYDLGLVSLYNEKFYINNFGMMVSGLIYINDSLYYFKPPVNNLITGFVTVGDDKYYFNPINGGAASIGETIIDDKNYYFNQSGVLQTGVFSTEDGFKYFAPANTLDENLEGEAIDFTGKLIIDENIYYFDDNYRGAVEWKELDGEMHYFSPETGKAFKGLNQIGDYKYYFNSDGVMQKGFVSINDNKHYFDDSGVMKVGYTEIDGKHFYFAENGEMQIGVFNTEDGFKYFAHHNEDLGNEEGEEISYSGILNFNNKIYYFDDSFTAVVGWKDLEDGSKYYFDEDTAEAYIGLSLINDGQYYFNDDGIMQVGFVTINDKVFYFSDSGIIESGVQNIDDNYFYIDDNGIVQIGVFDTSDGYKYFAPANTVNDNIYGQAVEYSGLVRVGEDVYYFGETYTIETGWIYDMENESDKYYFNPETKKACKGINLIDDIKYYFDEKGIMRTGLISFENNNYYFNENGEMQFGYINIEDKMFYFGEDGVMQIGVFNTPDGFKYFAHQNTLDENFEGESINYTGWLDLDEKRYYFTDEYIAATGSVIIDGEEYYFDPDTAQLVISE

Sequence of wild-type C. difficile toxin B (TcdB) (P18177 2-2366 limits assumed): as above

| Binder | binding result [1] | binding result [2] |
| --- | --- | --- |
| B9-30 mAb (antibody, V domains shown) VH: QVQLQQPGAEVVKPGAPVKLSCKASGYPFTNYWMNWVKQRPGRGLEWIGRIDPSNSEIYYNQKFKDKATLTVDKSSSTAYIQLSSLTSEDSAVYYCASGHYGSIFAYWGQGTTLTVSS VL: VQITQSPSYLAASPGETITINCRASKSISKYLAWYQEKPGKTNKLLIYSGSTLQSGIPSRFSGSRSGTDFTLIISSLEPEDSAMYYCQQHNEYPLTFGAGTKLELKR | binds | – |
| B9-30 mAb (C. difficile TcdB neutralizing antibody) (antibody, V domains shown) VH: QVQLQQPGAEVVKPGAPVKLSCKASGYPFTNYWMNWVKQRPGRGLEWIGRIDPSNSEIYYNQKFKDKATLTVDKSSSTAYIQLSSLTSEDSAVYYCASGHYGSIFAYWGQGTTLTVSS VL: VQITQSPSYLAASPGETITINCRASKSISKYLAWYQEKPGKTNKLLIYSGSTLQSGIPSRFSGSRSGTDFTLIISSLEPEDSAMYYCQQHNEYPLTFGAGTKLELKR | – | binds |
